{"source": "the nanobody polyreactivity screen of Harvey et al. (2022)"}
{"experiment": "yeast display, Sf9 membrane polyspecificity reagent, FACS + sequencing; frameworks hold sequencing errors", "outline": "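Sorting gates, low and high (top ~1%), were placed on anti-HA fluorescence to track expression and on streptavidin fluorescence to track reagent binding. A clone's polyreactivity label is taken from the gate it came out of. The reagent was 10% biotinylated, detergent-solubilized Sf9 membrane, applied for 1 hour at 4 °C to galactose-induced yeast display cells.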"}
{"sequence": "QVQLEESGGGLVQAGGSLRLSCAASGSTFTAYAMGWYREAPGKEMELVAAINWSGGTTYYADSVKGRFTISRDNAKNTVYLQMNSLKPEDTAVYYCAVDGNFFGEVRPYDYWGQGTQVTVSS", "polyreactivity (PSR sort gate)": "low polyreactivity"}
{"sequence": "QVQLEESGGGLVQAGGSLRLSCAASGSTFWYYAMGWYRPAPGKERELVAALSRSTGSTYYADSVKGRFTISRDNAKNTVYLQMNSLKPEDTAVYYCAADSYDWWQYTTSVHFDYYWGQGTQVTVSS", "polyreactivity (PSR sort gate)": "low polyreactivity"}
{"sequence": "QVQLEESGGGLVQAGGSLRLSCAASGSTFYYNAMGWYRQAPGKEREFVARISRSGGSTYADSVKGRFTISRDNAKNTVYLQMNSLKPEDTGVYYCNADAYGTPEFTSYAVRYDYWGQGTQVTVSS", "polyreactivity (PSR sort gate)": "low polyreactivity"}
{"sequence": "QVQLEESGGGLVQAGGSLRLSCAASGSTIFGNTMGWYRQAPGKERELVATITRRGGSTYYADSVKGRFTISRDNAKNTVYLQMNSLKPEDTAVYYCAKRGPYTKYDYWGQGTQVTVSS", "polyreactivity (PSR sort gate)": "low polyreactivity"}
{"sequence": "QVQLEESGGGLVQAGGSLRLSCAASGSTIKTYATMGWYRQAHGKERELVAAITSGSSTNYADSVKGRFTISRDTAMNTDYLQMNSLKPEDTAVYYGAADDYYNWYLGEPGDYLGQGTQVTVSS", "polyreactivity (PSR sort gate)": "low polyreactivity"}
{"sequence": "QVQLEESGGGLVQAGGSLRLSCAASGSTLTRNAMGWYRQAPGKERELVAAITSGGRTKYADSVKGRFTISRDNAKNTVYLQMNSLKPEDTAVYYCAKGGPPGQRGYDYWGQGTQVTVSS", "polyreactivity (PSR sort gate)": "high polyreactivity"}
{"sequence": "QVQLEESGGGLVQAGGSLRLSCAASGSTYGNSAMAGYRQAPGKERELVAAINGGPNTYYADSVKGRFTISRDNAKKTVYLQMNSLKPEDTAVYYCAAEAQAIGFHWGVDGDSWGQGTQVTVSS", "polyreactivity (PSR sort gate)": "low polyreactivity"}
{"sequence": "QVQLEESGGGLVQAGGSLRLSCAASGYIFRFYTMGWYRQAPGKERELVAAISSGGSTNYADSVKGRFTISRANAKNTVYLQMNSLKPEDTAVYYCAARFYSRYYWGQGTQVTVSS", "polyreactivity (PSR sort gate)": "low polyreactivity"}
{"sequence": "QVQLEESGGGLVQAGGSLRLSCAASGYISRQSAMGWYSQAPGKERELVAAITRGGAGTYYAASVKGRFTISRDNAKHTVYLQMNSLKPEDTAVYYCAKTWVSRDVEYDYWGQGTQVTVSS", "polyreactivity (PSR sort gate)": "low polyreactivity"}
{"sequence": "QVQLEESGGGLVQAGGSLRLSCAATGGTFRDNVMGWYRQAPGKERELVAAISRNGGSTYYADTVKGRFTISRDNAKNTVYLQMTSLKPEDTAVYYCAARHLSAGGYYWGQGTQVTVSS", "polyreactivity (PSR sort gate)": "high polyreactivity"}
{"sequence": "QVQLEESGGGLVQAGGSLRLSCAATGSIFYSYAMGSNRQAPGKEMELVATISTGGSTDYADSVKGRYTISRDNAKNTVYLQMNSLKPEETAVYYCATSGPYWWLVYWGQGTQVTVSS", "polyreactivity (PSR sort gate)": "low polyreactivity"}
{"sequence": "QVQLEESGGGLVQAGGSLRLSCAAYGGIFKQYAMGWYRQAPGKETELVAAITWSGGSTYYADSVKGRFTISRDNAKTTVSLQMNSLKPEDTAVYYCAKDYVVFQYVDFQDDDYWGQGTQVSVSS", "polyreactivity (PSR sort gate)": "low polyreactivity"}
{"sequence": "QVQLEESGGGLVQAGGSLRLSCAAYGSIIPFYPMGWYRQAPWTERELVAAISDRGGSTYYADSVKGRFTISRDNAKYTVYLQMNSLKPEDTAVYYGAKGGEVSQGYTDEYDYWGQGTQVTVSS", "polyreactivity (PSR sort gate)": "low polyreactivity"}
{"sequence": "QVQLEESGGGLVQAGGSLRLSCGASGFTFRGYAMGWYIQAPGKERELVAAISKRGGSTYYADSVKGRFTISRDNAKNTVYLQMNSLKPEDTAVYYGAAEDTVYWGGVYYWTVYYWGQGTQVNVSS", "polyreactivity (PSR sort gate)": "high polyreactivity"}
{"sequence": "QVQLEESGGGLVQAGGSLRLSCPASGRTFSVYAIGSYRPAPGKERELLAGITSGGSTNYADSVKGRFTISRDNAKNTVYLQMISLKPEDTAVYYCAAANVYAGFGFVSIGDYWGQGTQVTVSS", "polyreactivity (PSR sort gate)": "low polyreactivity"}
{"sequence": "QVQLEESGGGLVQAGGSLRLSFAASGRIFRYYAMGWYRHAPGKERELVPRMSWSGGSTHYADSVKGRFTISRDNAKNTVYLQMNSLTPEDTAVYYCAADGNGYPYRAGRTYDYWGQGTQVTVSS", "polyreactivity (PSR sort gate)": "low polyreactivity"}
{"sequence": "QVQLEESGGGLVQAGGSLRLSSAASGRTLVHYAIGSYRQAPGKEREMVAAISIGGDSTYADSVKGRFTISRDNAKNTVYLQMNSLKPEDTAVYYCAASGWWDFFDPYFKFDYWGQGTQVTVSS", "polyreactivity (PSR sort gate)": "low polyreactivity"}
{"sequence": "QVQLEESGGGLVQAGGSLRLTCAASGFIFKSYTMGWYRQATGKEMELVAAITSTGGGTYYADSVKGRFTISRDNAKNTVYLQMNSLKPEDTAVYYCNARTYVTVDYDFWGQGTQVTVSS", "polyreactivity (PSR sort gate)": "high polyreactivity"}
{"sequence": "QVQLEESGGGLVQAGGSLRLTCAASGFIFQYYTMGWYRQAPGKERELVASITGTGGSTYYADSVKGRFTISRDNAKNTVYLQMNSLKPEDTAVYYCAAREGWGYEYDYWGQGTQVTVSS", "polyreactivity (PSR sort gate)": "high polyreactivity"}
{"sequence": "QVQLEESGGGLVQAGGSLRLTCAASGRIFYRYGMGWYRQATGKERELVAAISRTGGSTYYADSVKGRFTISRDNAKNSVYLQMNSLKPEDTAVYYCNATSNYRYDFWGQGTQVTVSS", "polyreactivity (PSR sort gate)": "low polyreactivity"}
{"sequence": "QVQLEESGGGLVQAGGSLRLTCAASGRTFLGNAMGSYRQAPGKEREFVAVISHSGGGTSYADSVKGRFTISRDNAKNTVYLQMNSLKAEETAVYYCAAYSVSSTTWYYYDEYGYWGQGTQVTVSS", "polyreactivity (PSR sort gate)": "low polyreactivity"}
{"sequence": "QVQLEESGGGLVQAGGSLRLTCAASGSIFGSYTMGWYRKAPGKERELVAVISYSGGSTYYADSVKGRFSISRDNAKNTVYLQMNSLKPEDTAVYYCNAARKGVGYVHPYDFWGQGTQVTVSS", "polyreactivity (PSR sort gate)": "high polyreactivity"}
{"sequence": "QVQLEESGGGLVQAGGSLRLTCAASGSTFRYYALGWYRQAPGKERELVAAISGSGGRTYYADSVKGRFTISRDNAKNTVYLQMNSLKPEDTEVYYCNTRGRRTDYDYWGQGTQVTVSS", "polyreactivity (PSR sort gate)": "high polyreactivity"}
{"sequence": "QVQLEESGGGLVQAGGSLRLTCAASGSTFVRYVMGWYRQAPGKERELVAAISRRGGSTYYADSVKGRFTISRDNAKNTVYLEMNSLKPEDTAVYYCARTVGYRTLLESDSWGQGTQVTVSS", "polyreactivity (PSR sort gate)": "high polyreactivity"}
{"sequence": "QVQLEESGGGLVQAGGSLRLTCAGSGRIFGIYAMGWYRQAPGKERQLVAAIRDSGSRTYYADSVKGRFTISRDNAKNTVYLQMNRLTPEDTAVYYCAARTYTYPYFGGYQYTYNYWGQGTQVTVSS", "polyreactivity (PSR sort gate)": "low polyreactivity"}
{"sequence": "QVQLEESGGGLVQAGGSLSLSCAASGSSLDTYVMGWYRQAPGKEREVVAAISSDTSTNYADSVKGRFTISRDNAKNTVYLQMNSLNPEDTAVYYCAAVGSYYGWYQGFDYWGQGTLVTVSS", "polyreactivity (PSR sort gate)": "low polyreactivity"}
{"sequence": "QVQLEESGGGLVQAGGSLSLTCAASGRTFFTYAMGWYRQAPGKERELVAAIRWTGGRTTYADSVKARFSISRDNAKNTVYLQMISLKPEDTAVYYCAARVGRTYASYSTGNYYWGQGTQVTVSS", "polyreactivity (PSR sort gate)": "high polyreactivity"}
{"sequence": "QVQLEESGGGLVQEGGSLRLICAASGRIFGSYVMGWYRQAPGKERELVAAISRRGGSTYYADSVKGRFTISRDNAKNTVYLQMNSLKTEVTAVYYCAAEFSPSSNPYDYWGQGTQVTVSS", "polyreactivity (PSR sort gate)": "high polyreactivity"}
{"sequence": "QVQLEESGGGLVQEGGSLRLSCAASGRTFYYYDMGWYRQAPGKERELVAAITWSGGSTYYADSVKGRFTISRDNAKNTVYLQRNCLKREDTAVYYCAADVTYSRYEYWGQGSQVTVSS", "polyreactivity (PSR sort gate)": "low polyreactivity"}
{"sequence": "QVQLEESGGGLVQGGGSLRLSCAGSGRIFQLNAMGRYRQAPGIERELVADIRWSSGSTYYADTVKGRFTISRDNAKNSVYFQMYSLKPEDTAVYFCAGRVLYVHRQVYKMDYWGQGTQVTVSS", "polyreactivity (PSR sort gate)": "high polyreactivity"}
{"sequence": "QVQLEESGGGLVQPGGSLRLSCAASGRIFADYAMGWYRQAPGKERELVADIRQSGGRTYYADSVKGRFTISRDNAKNTVYLQMNSLKPEDTALYYCATDYGSWGDYSGKYDYWGQGTQVTVSS", "polyreactivity (PSR sort gate)": "low polyreactivity"}
{"sequence": "QVQLEESGGGVVQAGGSLRLSCAASGRIFNYYTMGWYRQATGKERELVARINSSGSTNLRRLCEGALHNFTRQCEVYRLFTDEQPETGRYRVYYCNADTKRSSREYEYWGQGTQVTVSS", "polyreactivity (PSR sort gate)": "low polyreactivity"}
{"sequence": "QVQLEESGGRLVQAGGSLRLSCAASGRIFNYYAMGWYRQAPGQERELVAAISNGGSTYYADSVKGRFTISRDNAKNTVYLQMNSLKPEDTAVYYGAAYQTYYARTELDYWGQGTLVTVSS", "polyreactivity (PSR sort gate)": "high polyreactivity"}
{"sequence": "QVQLEESGGVLVQAGGSHRLRCAASGRTIGWYAMGWYRQAPRKERELVAAIRSSTGSTYYADSVKGRFTISRDNAKNTVFLQMNSLKPEDTAVYDCAKRRADYSPRYGYWGQGTQVTVSS", "polyreactivity (PSR sort gate)": "high polyreactivity"}
{"sequence": "QVQLEESGGVLVQAGGSLRLSCAASGRTFGHYAMGWYRPAPGKERELVAAITRDDGTNYADSVKGRFTISGDNAKNTVYLQMNRLKPEDTAVYYCNADVWLRRVYDYWGQGTQVTVSS", "polyreactivity (PSR sort gate)": "low polyreactivity"}
{"sequence": "QVQLEESGRGLVQAGGSLRLSCAASGSTCYDYAMGWYRQAPGKERELVAASSRIGARTYYADSVKGRFTISRDNAKNTVYLQMNSQKPEDTAGYYCAATRVYSDYKYWGQGTQVTVSS", "polyreactivity (PSR sort gate)": "high polyreactivity"}
{"sequence": "QVQLEESGVGLVQAGGSLRLSCAASGRTFLRNAMGWYRQAPGKEMELVAAISWRGGSTYYADSVKGRFTISRDNAKNTVYLEMNSLKPEDTAVYYCNTFPSQYLWYDYWGQGTQVNVSS", "polyreactivity (PSR sort gate)": "high polyreactivity"}
{"sequence": "QVQLEESVGGLDQAVGSLRLSCAASGFTFNRYTMGWYRQAPGKEREFVASITRSGGSTYYADSVKGRFTISRDNAKNTVYLQMNSLTPEDTAVYYCAPVYQYSSRYDHWGQGTQVTVSS", "polyreactivity (PSR sort gate)": "high polyreactivity"}
{"sequence": "QVQLEESVGGLVQAGGSLRISCAASGRTFKLYAMGRKRQAPGKERELVATITRRGGSTYYADSVKGRFTISRDNAKNTVYLQMNSLKPEDTAVYYCASDAIGYYGTYDYWGQGTQVTVSS", "polyreactivity (PSR sort gate)": "high polyreactivity"}
{"sequence": "QVQLEESVGGLVQAGGSLRLSCAASGITFYDYTMGWYRQAPGKERELVAAISSRGGSTYYADSVKGRFTISRDNAKNTVYLQMNSLKPEDTAVYYCNARYNSWRYLAQYNYWGQGTQVTVSS", "polyreactivity (PSR sort gate)": "high polyreactivity"}
{"sequence": "QVQLEESVGGLVQAGGSLRLSCAASGRTFGRYAMGWYRQAPGKERELVAGISRSGDSTHYADSVKGRFTISRDNAKKTVYLQMNSLKPEDTAVYYCNKETPTIGARKYEDWGQGTQVTVSS", "polyreactivity (PSR sort gate)": "low polyreactivity"}
{"sequence": "QVQLEESVGGLVQAGGSLRLTCAASGSIFKTNAIGWYRQAPGKERELVAAIRASGGSTYYADSVKGRFTISRDNAKNSVYLQMNSLKPEDTAVYYCAARYWFKYYWGQGTQVTVSS", "polyreactivity (PSR sort gate)": "low polyreactivity"}
{"sequence": "QVQLEESWGGLVQAGGSLRLSCAASGRTFDTYAMGWNRQAPGKERELVAAITSGGSTYYADSVKGRFTISRDNAKNTVYLQMNSLKPEDTAVYYCAVSGQLYAYRYGYWGQGTQVTVSS", "polyreactivity (PSR sort gate)": "low polyreactivity"}
